Reference: paper PMC9540345

Target: FLAG-HA epitope-tagged H3.1 (UniProt P68431)
Experiment: proximity ligation

DAXX (death domain-associated protein 6) (from UniProt Q9UER7 1-740) (natural protein)
fold enrichment of PLA foci over empty vector control cells: 1.9 fold
